By EC50 is commonly meant the concentration giving half of the maximal effect.

The record followed here is PMC11621822.

For this assay, the target named is recombinant heat shock protein 70 cognate 3 (Hsc70-3), protein encoded by AAEL017349 (Aedes aegypti). Put plainly: ELISA. For orientation: An ELISA detects its analyte on a solid surface through an enzyme-linked reagent.

Turning to “recombinant E protein Receptor (EPrRec), protein encoded by AAEL011180 (natural protein)”, the EC50 turned out to be 70.7 nM.
